Reference: publication PMC7234810

Columns and labels:
[1] = target: Mouse ST2-Fc chimera (mouse) (UniProt P14719); experiment: SPR; BIAcore T200, single cycle kinetics, 25°C; mouse ST2-Fc (~200 RU) or mouse TRAP-Fc (~400 RU) captured on a Protein G chip; HpBARI injected in three-fold dilutions; 10 mM NaH2PO4 pH 7.5, 150 mM NaCl, 50 uM EDTA, 0.05% surfactant P20; 1:1 model
[2] = target: Mouse IL-33-TRAP-Fc (a fusion protein of ST2 and IL-1RAcP with an Fc tag) (mouse); experiment: as above
[3] = target: Human ST2-Fc chimera (human) (UniProt Q01638)
Sequence of Human ST2-Fc chimera (human) (Q01638 19-328, change not shown): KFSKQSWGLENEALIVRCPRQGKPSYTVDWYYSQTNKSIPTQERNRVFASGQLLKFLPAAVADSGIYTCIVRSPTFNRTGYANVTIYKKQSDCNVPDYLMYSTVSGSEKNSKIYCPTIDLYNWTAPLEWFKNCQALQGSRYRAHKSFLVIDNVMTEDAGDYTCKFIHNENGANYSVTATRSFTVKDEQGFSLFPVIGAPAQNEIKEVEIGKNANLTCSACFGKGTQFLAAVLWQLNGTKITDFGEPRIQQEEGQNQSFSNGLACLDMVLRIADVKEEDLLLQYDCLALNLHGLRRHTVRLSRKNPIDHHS

Sequence of Mouse ST2-Fc chimera (mouse) (P14719 27-332, stated change not applied): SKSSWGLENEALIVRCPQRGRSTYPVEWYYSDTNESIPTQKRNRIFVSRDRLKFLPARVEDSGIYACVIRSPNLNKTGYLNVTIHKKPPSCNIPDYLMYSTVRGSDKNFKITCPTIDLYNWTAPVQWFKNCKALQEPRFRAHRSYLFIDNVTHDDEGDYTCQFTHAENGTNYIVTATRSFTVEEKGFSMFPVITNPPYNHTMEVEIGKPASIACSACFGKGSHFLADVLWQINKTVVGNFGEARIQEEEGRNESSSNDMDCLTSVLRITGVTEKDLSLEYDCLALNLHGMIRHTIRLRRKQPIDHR

| Substance | Kd [1] [nM] | koff [1] [s⁻¹] | kon [1] [M⁻¹ s⁻¹] | Kd [2] [nM] | koff [2] [s⁻¹] | kon [2] [M⁻¹ s⁻¹] | IC50 of inhibition of IL-33-induced IFN-γ production from human PBMCs (5 ng/ml IL-12 + 0.1 ng/ml oxidation resistant human IL-33, 44 hr, ELISA); blocks human IL-33 with human ST2 [3] [nM] | fold change of the off-rate against the N-terminal tagged construct [2] [fold] |
| --- | --- | --- | --- | --- | --- | --- | --- | --- |
| H. polygyrus Binds Alarmin Receptor and Inhibits (HpBARI), N-terminal tagged (natural protein) | 0.26 | 0.0011 | 4e+06 | 0.17 | 0.00065 | 3.9e+06 | > 1000 | – |
| HpBARI expressed with C-terminal tags (natural protein) | – | – | – | – | – | – | – | 4 |
